Reference: IntAct's records for PubMed 16938345

B1: Linker for activation of T-cells family member 1 (Homo sapiens), O43561 (parent)
chain: MEEAILVPCVLGLLLLPILAMLMALCVHCHRLPGSYDSTSSDSLYPRGIQFKRPHTVAPWPPAYPPVTSYPPLSQPDLLPIPRSPQPLGGSHRTPSSRRDSDGANSVASYENEGASGIRGAQAGWGVWGPSWTRLTPVSLPPEPACEDADEDEDDYHNPGYLVVLPDSTPATSTAAPSAPALSTPGIRDSAFSMESIDDYVNVPESGESAEASLDGSREYVNVSQELHPGAAKTEPAALSSQEAEEVEEEGAPDYENLQELN

Variants of: B1
Settings: with grb2_human GRB2, P62993

effect of a mutation on the interaction | Variant
decreasing interaction | Y200F;Y220F
